Where no end group is shown, it is not given here.
Target: T1, interaction between HPV16 E1 and E2 (Human papillomavirus type 16, UniProt P03114)
T1 construct: made in house; host or cells: Hi-Five insect cells infected with recombinant baculovirus (pVL1392); nuclear extracts
T1 sequence (P03114 whole entry, looked up): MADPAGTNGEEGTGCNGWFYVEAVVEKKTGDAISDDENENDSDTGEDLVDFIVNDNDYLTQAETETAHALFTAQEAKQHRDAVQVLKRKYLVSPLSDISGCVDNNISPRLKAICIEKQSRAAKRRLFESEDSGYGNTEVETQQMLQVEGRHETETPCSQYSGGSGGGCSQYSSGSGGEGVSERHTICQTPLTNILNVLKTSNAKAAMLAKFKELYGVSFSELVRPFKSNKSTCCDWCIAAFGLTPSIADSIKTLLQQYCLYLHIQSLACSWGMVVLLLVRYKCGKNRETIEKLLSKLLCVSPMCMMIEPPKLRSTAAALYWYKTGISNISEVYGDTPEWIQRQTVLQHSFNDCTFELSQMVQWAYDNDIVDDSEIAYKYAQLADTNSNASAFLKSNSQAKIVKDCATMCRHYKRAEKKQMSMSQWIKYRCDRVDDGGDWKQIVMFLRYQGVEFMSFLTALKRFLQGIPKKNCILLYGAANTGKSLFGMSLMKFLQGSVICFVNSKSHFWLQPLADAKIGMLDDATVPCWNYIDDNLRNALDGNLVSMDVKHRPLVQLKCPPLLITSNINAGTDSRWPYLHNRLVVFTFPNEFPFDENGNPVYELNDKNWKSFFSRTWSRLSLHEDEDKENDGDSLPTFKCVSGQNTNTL
Assay: In vitro HPV E1-E2 binding assay (co-immunoprecipitation / Western blot), HPV16 E1 and HPV16 E2
Conditions: increasing peptide concentrations, FIG. 6A
Description: In vitro HPV E1-E2 binding assay. 300-500 ng protein from HPV16 or HPV11 EE-E1 expressing recombinant baculovirus infected cell nuclear extracts and 80-120 ng from HPV E2 baculovirus infected cell nuclear extracts were incubated in 500 μl NET-gel buffer (50 mM Tris-HCl pH7.5, 150 mM NaCl, 0.1% NP-40, 1 mM EDTA, 0.25% gelatin) at 4° C. for one hour. 1-2 μg anti-EE monoclonal antibody was added and incubated with shaking at 4° C. for one hour. Immune complexes were precipitated with protein-G agarose beads and washed twice for 30 minutes with ice cold NET-gel buffer. Precipitated proteins were detected by Western blot using appropriate primary antibodies and anti-rabbit IgG HRP or anti-mouse IgG HRP (Amersham). Membranes were blocked for one hour in TNET (10 mM Tris 7.5, 2.5 mM EDTA, 50 mM NaCl, 0.1% Tween-20) containing 4% (w/v) dry milk. Washes and antibody reactions were carried out in TNET, and proteins were visualized by chemiluminescence (Reneaissance ECL, NEN) and autoradiography. Bands were quantitated using the NIH image program.
Therefore, we reasoned that a peptide encompassing this domain of HPV16 E2 might inhibit interaction between HPV16 E1 and E2, thereby inhibiting HPV16 DNA replication (FIG. 5). In order to test this possibility, HPV16 E2 and epitope tagged full length HPV16 E1 (EE16-E1) proteins were expressed separately using baculovirus vectors. EE-E1 and associated E2 proteins were immunoprecipitated using an anti-EE epitope monoclonal antibody. Precipitated E2 was detected by Western blot using polyclonal antiserum raised to the DNA binding domain of HPV16 E2 (35). As shown in lane 2 of FIG. 6A, E2 co-immunoprecipitated with EE16-E1, but was not precipitated by the EE epitope antibody in the absence of EE16-E1 (lane 1). Peptides encompassing HPV16 E2 amino acids 29-51 (E2N-WP23) or residues 33-47 (E2N-WP15) of HPV16 E2 were then tested for inhibition of E1-E2 interaction. These peptide sequences were derived from the sequence of HPV16 E2, and were based on an alignment of amino terminal residues that are conserved among the papillomavirus E2 proteins (FIG. 5). […] Both the HPV16 E2 protein itself and the E2 derived peptides act specifically in these assays, since the E39A replication defective HPV16 E2 mutant bound only slightly to EE16-E1 (lanes 14). […] These peptides are named E2N-MP23 and E2N-MP15, respectively (see FIG. 5). […] We have previously shown that a domain spanning amino acids 421-647 of the HPV16 E1 carboxy terminus is necessary and sufficient for E2 interaction (45).

## WKHMRLACAIYYKAR [E2N-MP15]
  inhibition of HPV16 E1-E2 interaction: did not inhibit E1-E2 interaction at concentrations at which the wild type peptide could do so

— patent US6673354B2, “Compositions and methods for treating papillomavirus-infected cells” (priority 1998, dated 2004)
